Biological target: Rat secretory component (rat (endogenous in rat liver)) (UniProt P15083)
Test: co-IP

Chain of UniProt P15083 (P15083 19-611): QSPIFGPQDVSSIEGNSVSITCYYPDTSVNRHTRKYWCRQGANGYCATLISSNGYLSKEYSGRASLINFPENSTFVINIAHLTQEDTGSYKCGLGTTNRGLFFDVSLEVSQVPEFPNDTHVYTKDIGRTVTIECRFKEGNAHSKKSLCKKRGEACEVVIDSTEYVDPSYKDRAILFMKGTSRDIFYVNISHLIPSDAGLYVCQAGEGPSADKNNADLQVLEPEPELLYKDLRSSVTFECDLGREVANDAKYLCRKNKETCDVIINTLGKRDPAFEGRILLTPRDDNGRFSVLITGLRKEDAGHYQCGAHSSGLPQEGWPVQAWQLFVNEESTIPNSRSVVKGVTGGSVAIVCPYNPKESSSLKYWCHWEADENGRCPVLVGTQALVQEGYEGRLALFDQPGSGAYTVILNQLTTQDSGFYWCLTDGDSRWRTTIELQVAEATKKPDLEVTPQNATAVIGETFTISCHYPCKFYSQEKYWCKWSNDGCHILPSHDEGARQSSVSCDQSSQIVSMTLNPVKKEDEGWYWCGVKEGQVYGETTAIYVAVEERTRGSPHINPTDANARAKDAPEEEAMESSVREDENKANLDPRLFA

Substance: Human monoclonal polymeric IgA (IgA1 myeloma protein) (from UniProt P01591 23-159) (antibody)
- percent bound to anti-rat SC immunoadsorbent: 92.4%

Reference: PMC2114114
